Tests used:
[1] = target: T1, human ErbB3-Fc (R&D Systems) (human, UniProt P21860 20-643); test: ELISA on ErbB3-Fc (Example 42); format of the parent not stated, the variants were soluble monovalent Sabs
T1 construct: Bought protein; also called wild-type ErbB3-Fc fusion; immobilized ErbB3; not shown: Fc part of the bought fusion protein; not described

[2] = target: T2, murine ErbB3-Fc (R&D Systems) (mouse, UniProt Q61526 20-641); test: ELISA, SgG on plate-coated murine ErbB3-Fc, anti-VpreB detection
T2 construct: Bought protein; also called mouse ErbB3; not shown: Fc part of the bought fusion protein; not described
T2 sequence (Q61526 20-641 limits assumed): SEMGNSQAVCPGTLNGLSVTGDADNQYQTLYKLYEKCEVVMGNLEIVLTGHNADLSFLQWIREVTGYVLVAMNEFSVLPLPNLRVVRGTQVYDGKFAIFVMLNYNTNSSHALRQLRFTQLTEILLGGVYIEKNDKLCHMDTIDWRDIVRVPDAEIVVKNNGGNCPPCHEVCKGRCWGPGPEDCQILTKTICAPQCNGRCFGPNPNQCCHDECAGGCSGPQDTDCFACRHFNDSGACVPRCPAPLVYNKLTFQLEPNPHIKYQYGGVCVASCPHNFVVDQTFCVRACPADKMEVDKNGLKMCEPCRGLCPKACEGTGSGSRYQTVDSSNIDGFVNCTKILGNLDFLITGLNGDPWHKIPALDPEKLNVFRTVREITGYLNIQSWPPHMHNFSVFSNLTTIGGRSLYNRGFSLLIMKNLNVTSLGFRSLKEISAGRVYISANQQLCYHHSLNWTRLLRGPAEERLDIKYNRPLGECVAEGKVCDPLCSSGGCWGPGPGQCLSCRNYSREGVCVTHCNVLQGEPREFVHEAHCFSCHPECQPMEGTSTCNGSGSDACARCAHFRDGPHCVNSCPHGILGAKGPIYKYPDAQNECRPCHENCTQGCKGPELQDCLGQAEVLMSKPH
Experimental: (§1) Binding was detected using a biotinylated antibody that recognizes VpreB, followed by strepatvidin HRP. Detection used a colorimetric HRP substrate. Data was analyzed via using GraphPad Prism.

EGFR-Fc (ErbB1) = target: T3, EGFR-Fc (ErbB1) (human, UniProt P00533 25-645); test: ELISA on plate-coated EGFR-Fc (ErbB1), detection biotinylated anti-VpreB (Example 52)
T3 construct: The sentence reads 'human ErbB3-Fc, EGFR-Fc (ErbB1) or ErbB2-Fc'; 'human' is read as applying to all three; not shown: Fc part; not described
Source text: (§2) ELISA plates were coated with human ErbB3-Fc, EGFR-Fc (ErbB1) or ErbB2-Fc. Various concentrations of the indicated anti-ErbB3 SBPs were then allowed to bind to the coated wells. Binding was detected using a biotinylated antibody that specifically recognizes VpreB, followed by streptavidin HRP. Detection used a colorimetric HRP substrate.

[3] = target: T1, human ErbB3-Fc (R&D Systems); test: ELISA, inhibition of binding of NRG1-beta 1 ECD (0.26 ug/ml) to plate-coated human ErbB3-Fc
Experimental: ELISA plates were coated with human ErbB3-Fc. Various concentrations of the indicated anti-ErbB3 SBPs were then allowed to bind to the coated wells. […] Detection used a colorimetric HRP substrate.
Data was analyzed using GraphPad Prism.

[4] = target: T1, human ErbB3-Fc (R&D Systems); test: ELISA on plate-coated human ErbB3-Fc, detection biotinylated anti-VpreB and streptavidin HRP (Example 52)
Source text: as §2

ErbB2-Fc = target: T4, ErbB2-Fc (human, UniProt P04626 23-652); test: ELISA on plate-coated ErbB2-Fc, detection biotinylated anti-VpreB (Example 52)
T4 construct: The sentence reads 'human ErbB3-Fc, EGFR-Fc (ErbB1) or ErbB2-Fc'; 'human' is read as applying to all three; not shown: Fc part; not described
Source text: as §2

[5] = target: T1, human ErbB3-Fc (R&D Systems); test: ELISA on plate-coated human ErbB3-Fc without NRG, detection biotinylated anti-VpreB and streptavidin HRP (Example 43); axis labelled log [Sab] nM, text speaks of SgGs
Source text: (§3) The resulting bound SgGs were detected using a biotinylated anti-VpreB, followed by streptavidin HRP colorimetric detection.

[6] = target: T1, human ErbB3-Fc (R&D Systems); test: ELISA, SgG on plate-coated human ErbB3-Fc, anti-VpreB detection
Experimental: (§4) Binding was detected using a biotinylated antibody that specifically recognizes VpreB, followed by streptavidin HRP. Detection used a colorimetric HRP substrate. Data was analyzed via using GraphPad Prism.

[7] = target: T5, human ErbB3 expressed on the surface of cells (BxPC-3 and other human tumor cell lines) (human, UniProt P21860 20-1342); test: flow cytometry on BxPC-3 cells
T5 construct: SKBR3, PathHunter reporter cells in functional assays; The leader 1-19 is not part of the mature protein; also called cell surface ErbB3; cell surface receptor
Experimental: (§5) Briefly, BxPC-3 cells were first dissociated using 0.25% trypsin, 0.2% EDTA, washed in cold PBS, 1% BSA, and then resuspended at 3×10⁶ cells/ml. SgGs (described above) were added at the indicated concentrations in Staining Buffer (Becton Dickinson) and incubated at 4 degrees C. for 1 hour. Next the cells were washed in stain buffer and resuspended with 1:133 diluted biotinylated goat anti-human IgG (Southern Biotech #2040-08) and incubated at 4 degrees C. for 1 hour. Cells were then washed in stain buffer and resuspended with Alexa488 conjugated streptavidin (Invitrogen #S11223) and incubated at 4 degrees C. for 1 hour. One microliter of the vital stain 7AAD (Invitrogen #A1310) was added during the last 15 minutes of incubation. Cells were washed with stain buffer and analyzed on a flow cytometer.
(§6) Thereafter only signals arising from this gated population were analyzed. Geometric mean fluorescence intensity for cells stained using the indicated concentrations of SBPs were determined using FLOWJO analysis software and EC50s were calculated using Graphpad Prism.

[8] = target: T5, human ErbB3 expressed on the surface of …; test: flow cytometry on BxPC-3 cells, geometric mean fluorescence intensity
Experimental: as §5, §6

[9] = target: T1, human ErbB3-Fc (R&D Systems); test: ELISA, SgG on plate-coated human ErbB3-Fc
Experimental: as §4

[10] = target: T1, human ErbB3-Fc (R&D Systems); test: ELISA on plate-coated human ErbB3-Fc with 1.85 nM NRG1-beta 1 extracellular domain added before the SBP (+ NRG), detection biotinylated anti-VpreB (Example 43); axis labelled log [Sab] nM
Source text: as §3

[11] = target: T2, murine ErbB3-Fc (R&D Systems); test: ELISA, SgG on plate-coated murine ErbB3-Fc
Experimental: as §1

[12] = target: T1, human ErbB3-Fc (R&D Systems); test: ELISA on ErbB3-Fc (Example 42); format of the parent not stated, the variants were soluble monovalent Sabs; remark: listed apart in the source
[13] = target: T1, human ErbB3-Fc (R&D Systems); test: ELISA on ErbB3-Fc, soluble monovalent Sab (Example 42)

Row | Binder | binding result (EGFR-Fc (ErbB1)) | IC50 [3] [nM] | EC50 (read off the curve) [4] [nM] | binding result (ErbB2-Fc) | EC50 (read off the curve) [5] [nM] | EC50 [6] [nM] | EC50 [7] [nM] | EC50 [8] [nM] | EC50 [9] [nM] | EC50 (read off the curve) [10] [nM] | other results
1 | 2817-C01 (Parent) (other) VH: EVQLLESGGGLVQPGGSLRLSCAASGFTFSTYAMNWVRQAPGKGLEWVALISSGGSYKYYADSVKGRFTISRDNSKNTLYLQMNSLRAEDTAVYYCAKDNFILLNSWFDYWGQGTLVTVSS surrogate light: QPVLHQPPAMSSALGTTIRLTCTLRNDHDIGVYSVYWYQQRPGHPPRFLLRYFSQSDKSQGPQVPPRFSGSKDVARNRGYLSISELQPEDEAMYYCAMGARSSVTHVFGSGTQLTVLSQPKATPSVTLFPPSSEELQANKATLVCLMNDFYPGILTVTWKADGTPITQGVEMTTPSKQSNNKYAASSYLSLTPEQWRSRRSYSCQVMHEGSTVEKTVAPAECS |  |  |  |  |  |  |  |  |  |  | EC50 [1]: 0.055 nM
2 | 2716-F05 surroglobulin (SgG) (other, also called anti-ErbB3 SgG) VH: EVQLLESGGGLVQPGGSLRLSCAASGFTFSNYWMHWVRQAPGKGLEWVALISGGGGNTYYADSVKGRFTISRDNSKNTLYLQMNSLRAEDTAVYYCAKDNEKNLYTWLDYWGQGTLVTVSS light: QPVLHQPPAMSSALGTTIRLTCTLRNDHDIGVYSVYWYQQRPGHPPRFLLRYFSQSDKSQGPQVPPRFSGSKDVARNRGYLSISELQPEDEAMYYCAMGARSSVTHVFGSGTQLTVLSQPKATPSVTLFPPSSEELQANKATLVCLMNDFYPGILTVTWKADGTPITQGVEMTTPSKQSNNKYAASSYLSLTPEQWRSRRSYSCQVMHEGSTVEKTVAPAECS | no binding (tested: 1000 nM) | 0.52 | ~0.08 | no binding (tested: 1000 nM) | ~0.5 | 0.05 | 0.04 | 0.04 | 0.049 | ~0.7 | EC50 [2]: 0.06 nM; EC50 [11]: 0.095 nM
3 | 2716-F05 (Parent) (other) VH: EVQLLESGGGLVQPGGSLRLSCAASGFTFSNYWMHWVRQAPGKGLEWVALISGGGGNTYYADSVKGRFTISRDNSKNTLYLQMNSLRAEDTAVYYCAKDNEKNLYTWLDYWGQGTLVTVSS light: QPVLHQPPAMSSALGTTIRLTCTLRNDHDIGVYSVYWYQQRPGHPPRFLLRYFSQSDKSQGPQVPPRFSGSKDVARNRGYLSISELQPEDEAMYYCAMGARSSVTHVFGSGTQLTVLSQPKATPSVTLFPPSSEELQANKATLVCLMNDFYPGILTVTWKADGTPITQGVEMTTPSKQSNNKYAASSYLSLTPEQWRSRRSYSCQVMHEGSTVEKTVAPAECS |  |  |  |  |  |  |  |  |  |  | EC50 [12]: 0.22 nM
4 | 2817-C01 surroglobulin (SgG) (other, also called anti-ErbB3 SgG) VH: EVQLLESGGGLVQPGGSLRLSCAASGFTFSTYAMNWVRQAPGKGLEWVALISSGGSYKYYADSVKGRFTISRDNSKNTLYLQMNSLRAEDTAVYYCAKDNFILLNSWFDYWGQGTLVTVSS light: QPVLHQPPAMSSALGTTIRLTCTLRNDHDIGVYSVYWYQQRPGHPPRFLLRYFSQSDKSQGPQVPPRFSGSKDVARNRGYLSISELQPEDEAMYYCAMGARSSVTHVFGSGTQLTVLSQPKATPSVTLFPPSSEELQANKATLVCLMNDFYPGILTVTWKADGTPITQGVEMTTPSKQSNNKYAASSYLSLTPEQWRSRRSYSCQVMHEGSTVEKTVAPAECS | no binding (tested: 1000 nM) | 0.99 | ~0.05 | no binding (tested: 1000 nM) | ~0.2 | 0.04 | 0.138 | 0.12 | 0.041 | ~0.3 | 
5 | 3000-C08 (other, copies: 1 + 1) VH: EVQLLESGGGLVQPGGSLRLSCAASGFTFSSYWMHWVRQAPGKGLEWVAVISNNGRYKYYADSVKGRFTISRDNSKNTLYLQMNSLRAEDTAVYYCAKDNEKNLYTWLDYWGQGTLVTVSS surrogate light: QPVLHQPPAMSSALGTTIRLTCTLRNDHDIGVYSVYWYQQRPGHPPRFLLRYFSQSDKSQGPQVPPRFSGSKDVARNRGYLSISELQPEDEAMYYCAMGARSSVTHVFGSGTQLTVLSQPKATPSVTLFPPSSEELQANKATLVCLMNDFYPGILTVTWKADGTPITQGVEMTTPSKQSNNKYAASSYLSLTPEQWRSRRSYSCQVMHEGSTVEKTVAPAECS |  |  |  |  |  |  |  |  |  |  | EC50 [13]: 0.182 nM
